The nature of the data set: label from the status in PepcDB records.

Protein production data for 19 sequences are collected here from a protein production outcome set (Wang et al. 2014).

In the case of “MSDAPTSPRFSAATSTRLLDHAQLEALCADYDGFLLDLWGVVMDGTEAFPGALAWLARRHAEGRPVWFLSNSSSSVAEMSAGLERLGIRRDWFAGITTSGQLTIDALLQTAEYRRGGIYLAGVGLAQQSWPAEIRERFVEDIAQAALIVGVGSFPQDELEQRFAPLRGATDLPFLCANPDRVVVSGGRTVYGAGMLAELFSEEGGQVSWYGKPDPAAFRIAQRQLEARGARHILFVGDSLVTDVPGALAARIDTLWLGATGIHREALGAEFNGALDEERVRSLLHGYPIRPHFAAPGLV”, the protein production result is reported as “failed”.
On to “MSDDLALTALAASSFSLPELREGQLAGMTALVERRDVLAVMPTGYGKSATYQVAALYLHNKTGRPAVVVSPLIALQEDQLDGLAEHLGEGAGVAINSSRSDAEVEAAWQAVESGQAAFLFLAPEQLSKRETVERIANLDITMFVVDEAHCVSSWGHDFRPDYLELGHVREHLGNPPVIALTATASPPVRDEIVKRLGMTEPVVLVRGFDRPNISLDVVRHQEDKGKRKAVMEQVVALAKAEGLGLLYAATRKATEKYAAKLTEHGLRAEAYHAGRADSDRESIHERFLDDQLDVVVATTAFGMGIDKPNVRFVVHADIPESLDSYYQEIGRAGRDGEPATAILHYRAEDLGLRKFFATHSPDAEALTAVLKVIKNAGAPVPKTALVELTGFPARRVTALVNQLEEAGAVTTGKRGTRLSSKAKLTTLVDRAVELAEARQRVDQSRLTMMRAYAETDACRRQFLLGYFGEDLPEPCGNCDACAEIHDDAGSGSAGHLTSTAENLFPLQSTVIHKEWGPGLVMRHEDDVMTVLFEQEGYKTLSRAAVVEHELLKPA”, for which the protein production result is “failed”.
The entry for “MSDFEKQLWKAADKLRKNIDAAEYKHIVLGLIFLRYISDAFEELYEKLQQGEGEYAGADPEDRDEYKAENVFFVPAISRWPYLQSEAKKPDIGKSVDNAMDAIEKENPLLRGVLPKVFARGNLDPTNLGGLIDLVSNVALGDAKSRSADVLGHVFEYFLGEFALAEGKKGGQFYTPRSVVELLVEMLEPYNGRVFDPCCGSGGMFVQSEKFVADHQGKINDISIYGQESNQTTWRLAKMNLAIRSIDSSQVKWNNEGSFLNDVHKDLKADYVIANPPFNDSDWSGDLLRKDGRWKYGVPPAGNANYAWIQHFLYHLGPSGQAGFVLAKGSLTSKSSGEGDIRKELVEARLVDCIVNLPPKLFLNTQIPASLWFLSRNKANGKHRNRTDEILFIDARNMGHLINRRTREFSPEDIQQIAGTYHKWRNPEGNYEDVKGFCNSAPIERVRELGYVLTPGRYVGLPDDEDNFDFNERFSALKAEFEEQLKEEERLNLRIAENLKKVKPA” is “failed”; for “MSDFNKYCEEAAREALPDSEDEEDIGDEDTCSAQDLAAEFQLKYKPQDEVSVSLQREYVLSLAADQGFSRMAAGLSNSAVHIYNLDSGAGKLENFSYLPPTDSPQSVSICGVRFLDEGPHNILVGTTDGYVRLYDLRLRGEQARFKYTQHPNVPPVPKSLSCFDRNANGRIICCGTEQFHSNAFLVFFDVRERQQMGVYFESHEDDITSLRFHAQNPDLLATGSVDGLVNVFDVKEPDEDEALLNTFNTESSVARLAWHRNVYDKDIISCVTTTGDFKSYECEEGDEVASFERPDVTAAIRRKKAANFNLINAHNQEDGGVFLLAGTNFNKGEILRSVSVTSKNSLQPLANFQGNKQIVRDSLFDSKRSLLFTGGESGIVTVWAQDASGTAFSSEKLKARKEKKSRKQAPY” it is “failed”; for “MSDHHHHDHHLGCACCALPLLELLDQPQLSQDEWQRELETLAPELGKRFPRPGQQESAIFHGGSIRPLAAAGPSRVAALGMSGGRIVAMGDLDDVRAAMASHRPFREIDLDGRALLPGLVDPHMHIMPSALFKSWISLSAFGVTRNSQDGEDAQVLNPDYSYQQIKDKLLPAIAQAKQPGAASNWVLGFGVDPSLMREWVDIKASSLDELAPPDDNIAVFLLNASGHIGYANTAAMKEAGLTPEQIKKCEGVLTEANIIQIMGKIPKRILAKDLLRNLLMVLHDAASRGNTMLFDAGLGSSLKEAEVRLLQLIAKLGLSPVRIAGALYSNELTQMRQWMKLYQPDLNSQDDSHFSIKALKLVADGSNQGLTGFQFSPYKNVAQHPVPDVPPIGLFNFKIPDAPSSENENRLPDSLASYLHLALGSGWPVLVHSNGEQAMELVLDSYQEAISATRADARHLRLRVEHASLLTDATLSRMASMGLSPSFLIGHVGYWGYALQNDILGEARTELLDRCKSARDAGIRISLHSDHFVSPLGSLRMAEQAIYRKMEGAPQEEKPVLNKEECLSHEQALAAVTLDAAWQCHMDHLVGSLEPGKLADMVILGQDPLDDGVTDLRHINVHETWRGGARVYANPNTH” it is “failed”.
In the case of “MSDINKPFLVVIVGPTASGKTELSIELAKQINGEIISGDSMQVYKQMDIGTAKVTNEEMDGIPHYMIDILNPDDSFSVYDFKLRAQALIEDITSRGKIPIIAGGTGLYIQSLIYDYPFDDETVSKEVEQKTQLQLQKLEPLTNQEVHDYLATFDPQSAKDIHPNNRKRVLRAIEYYLNTKKLISSRKKVQQFTENYDTLLIGIEMSRKTLYSRINKRVDIMLGHGLFNEVKNLVEQGYESTQSMQAIGYKELVPVVNGELSIDQAVETLKQHSRQYAKRQLTWFKNKLTVQWFNRETMSLQMMLDEITTQINKRSSKHDCKPQHPRSSTREL”, the protein production result is “failed”.
The entry for “MSDINTVNLINQMKTLAAQAEGIKPDSGLNHASFSSVFQQALNQVNELSQTADSLKTRFEIGDPNVSLGEVMIASQKSNLGFEATLRVRNKLVQAYQDIMNMPV” is “failed”; for “MSDKLLIMFHGVGSNGVDLLPIAQYWQRQIDGLDIAYPNAPFPFMHSHEVFEWFSLTGITPQNRYERIVDAREYFDQTILRTLQEHKFQGDLSQLIFCGFSQGTIMCLDAIVSGRWSVAGCIGFSGRLASPVESDVRTTKISLMHGEADAVIAVEEGREAYHTLNEAGFDVQLETYTGLGHSVNELELKKGLEFLQAL” it is “failed”; for “MSDKRNPRISSRKQPQQARSSELVASILEAAVQVLASEGAQRFTTARVAERAGVSIGSLYQYFPNKAAILFRLQSDEWRRTTRLLGEILEDTTRPPLERLRRLVLAFVRSECEEAAIRVALSDAAPLYRDADEAREVKAEGARVFQAFLREALPEVAEAERSLAGDLLTTTLGAVGKQFSEQPRSEAEIERYAEALADMLCAYLAALGER” it is “not failed”.
On to “MSDLLPLISVYGYVAALLLISEKTLKNEVVSRKFLHIMVGNIAFILPFFESRFVMAFLAAFPFVVLTFLMSPHSPVKLSSRTSVAGHGLGLVYYSIAWTVLAYAFFDRPDVIAVGIMAMSYGDGLASLIGGRYGKRKFRILGDEKSLEGSVAMFLGCVASFSVVSLYYHGSAGPLLLPLAAFATVVEAVTPKGLDNLSVSILTAILYFWMA”, for which the protein production result is reported as “failed”.
On to “MSDLQSLQPKLLWQWFDQICAIPHPSYKEEQLAQFIINWAKTKGFFAERDEVGNVLIRKPATVGMENRKPVVLQAHLDMVPQANEGTNHNFDQDPILPYIDGDWVKAKGTTLGADNGIGMASALAVLESNDIAHPELEVLLTMTEERGMEGAIGLRPNWLRSEILINTDTEENGEIYIGCAGGENADLELPIEYQVNNFEHCYQVVLKGLRGGHSGVDIHTGRANAIKVLLRFLAELQQNQPHFDFTLANIRGGSIRNAIPRESVATLVFNGDITVLQSAVQKFADVIKAELALTEPNLIFTLEKVEKPQQVFSSQCTKNIIHCLNVLPNGVVRNSDVIENVVETSLSIGVLKTEDNFVRSTMLVRSLIESGKSYVASLLKSLASLAQGNINLSGDYPGWEPQSHSDILDLTKTIYAQVLGTDPEIKVIHAGLECGLLKKIYPTIDMVSIGPTIRNAHSPDEKVHIPAVETYWKVLTGILAHIPSR”, for which the protein production entry is recorded as “not failed”.
For the sequence “MSDLVRVERKGRVTTVILNRPASRNAVNGPTAAALCAAFEQFDRDDAASVAVLWGAGGTFCAGADLKAFGTPEANSVHRTGPGPMGPSRMMLSKPVIAAVSGYAVAGGLELALWCDLRVAEEDAVFGVFCRRWGVPLIDGGTVRLPRLIGHSRAMDMILTGRGVPADEALAMGLANRVVPKGQARQAAEELAAQLAALPQQCLRSDRLSALHQWGLPESAALDLEFASIARVAGEALEGARRFAAGAGRHGAPAPRAEQGDTL”, the protein production entry is on record as “not failed”.
Turning to “MSDPGFEYAPIGLVELENRVIRRCNLHFASMFGGQESEYRDMPLLRLYPSHEDFERIGKRGLQVMRETGYYTDERIMRRRDGDLFWCRARGKSLTPDDPFRHGIWSFADISEERRVVELTPREREVALLTCRGLSAKEVGVELGLSYRTIEAHRARLLQKFGARKLPELVAKLSGMPL”, the protein production result is “failed”.
Consider “MSDPGNEQNGDGIDPAIVEVLLVLREAGIENGATPWSLPKIAKRAQLPMSVLRRVLTQLQAAGLADVSVEADGRGHASLTQEGAALAAQLFPDPF”, for which the protein production result is listed as “not failed”.
In the case of “MSDPYERVNGGRLAFKGGDLATRKSIEKKKKKKQKKNKEKLDGVEDGAKTAPDGSPPPAAAAGDEDIYSIDAAKKKKYDDLFPVEAKKFGYIPKANFESREDALDDRVKKKADRYCK”, the protein production entry is “failed”.
On to “MSDQKNRRNALIGAAFLMATSAIGPGFLTQTATFTQALAASFGFVILLSILLDIGAQLNIWRIVAVSEKQAQDIANQVLPGAGYFLAVLIVMGGLAFNIGNVGGAGLGLNLLTGLSPETGAVISGVIAIGVFLFKEAGKVMDKFAQVMGFVMIALTVYVAWQANPPLADAAVHTFMPEKLDAMAIVTLVGGTVGGYITFAGAHRLLDAGIKGKSALPEVSQSSVRAILIASIMRIVLFLAVLGVVSQGVQLNPDNPASTPFEYAAGYIGLLIFGVVIWAASITSVIGAAYTSVSFFSGLSPSIERNKNKWIIAFIAVSTAVFSTIGKPAQVLVFVGALNGLILPISLGLILIAAYKTKIVGDYKHPLWLTVSGVIVVGLMAVLSAITISKYIGGLFG”, for which the protein production entry is “failed”.
With “MSDQPMNEVQDNAAPANPWLELRRLTPARIALGRTGTSLPTCAQLDFQAAHAQARDAVHLAFDHAAISAQLAEKGRETILLHSAAADRDSYLQRPDLGRRLNDESAQTLRDYAAAHPGGLDLAVVVADGLSALAVHRHAVPFLTRLEEQASAEGWTLSPVLMVEQGRVAVADEIGELLGAKMVVILIGERPGLSSPDSLGLYFTYAPKVGLNDAHRNCISNVRLEGLSYAMAAHRLLYLMREACKRQISGVSLKDEAQLNTLESDDSAENSDRKIGNFLLDGPAVPH”, the protein production entry is reported as “not failed”.
In the case of “MSDRKTMWDERYDTTDFVYGREPNAFLAEVVQQIPPGDVLCLAEGEGRNAVFLAKQGHRVLAVDSSAVGLVKAARLAEESGVRIETETADLAEFAIEPVCWDAIVSIFCHVPPQVRRALHRKVVEGLRPGGLFILEAYTPAQLKLRTGGPPTEEVMMTLAGLREELAGLEFLQAREIEREVVEGRFHTGRGAVVQVVARKP” it was “failed”; in that of “MSDRSSLFDVRSSTSVTLDQVVRRDTVEIPDEAALAMPVQPLSFWQGGARRATALTQDMNLRRWMLGLMTIAMGVAGWKASFDTIALGGVTRLEAVVLTLLAPLFLALSLWFCTALIGFVVLMGRPKDPLGIDSEAPMPKLHTRTAILMPVYNEDAAAVFARLRAMDASIAETGSARNFDIFVISDTRDAQVALAEQACFARFRREANCNVYYRIRKENTGRKAGNVADWVSRWGSAYEHMLVLDADSLMTGEAMVRLADAMERHPGAGLIQTMPMIINGQTIFARTLQFATRLYGRVAWTGLAWWSGSESSFWGHNAIVRTRAFAETCGLPHLPGPKPFGGEVMSHDALESALLRRGGWSVHLAPYLDGSYEESPSNLLDFATRDRRWCRGNIQHVPLIALPGLHWMSRMHLVIGVLSYALSPLWFFCLSAGLISRALMPELKKAAFTMADLKAAAHALIDWSEIQATAWAMIITFVLLFGPKILGAILVLARKGEVKGFGGKRRMAAGLGVEMLLSALVAPMLMFTQTRAIVEILAGKVGGWAAQRRDADKVDFKEAWAAMGWISLSGLILAASFWFTPDLLTATAPILAGLVLAVPLTMLGAHKVAGLKLKANGLFMTPEERRPPAIVRAAVGAACEPPIRWFARNGRPIGPTTKIRDAA”, “failed”.
